± gives the uncertainty stated by the source.
Test: protein stability index of a GFP-peptide fusion (yeast GPS) (PSI 1-4); higher = more stable; sorted into four equal gates, so the index is relative within each strain
Settings: doa10∆
Outline: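 Sequencing reads from sorted gates were used to score each peptide. The library consisted of tiled 17-residue yeast protein peptides fused downstream of GFP on a Cherry-expressing plasmid, pooled and carried in yeast. Mid-log cultures in leucine-free medium were split into four equal gates by GFP/Cherry ratio, and each gate's plasmids were PCR-amplified and Illumina-sequenced. The protein stability index adds up, over all gates, the read frequency multiplied by the gate number.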
With IEKSRLFSEKTIRYLMQ [SNF6] the protein stability index was 1.82 ± 0.069.
IEKWTANLLPARQFGYV [RPS22A] gave a protein stability index of 1.6 ± 0.075.
IERYPLKVTKKHGAKKV [RPL27A] gave a protein stability index of 3.37 ± 0.092.
With IESIRSCKDSQLKWAQN [YIL149C/MLP2] the protein stability index was 2.78 ± 0.064.
IEVTIGIDQYSFNVKEN [AAR2] showed a protein stability index of 2.67 ± 0.053.
Sequence IFEISLQRKDYTSIVQC [YML103C/NUP188] has a protein stability index of 1.76 ± 0.051.
With IFFNIPLVAHLGLYVGV [YJL039C/NUP192] the protein stability index was 1.42 ± 0.044.
IFIATQLEKKIRFVCLS [BRR2] gave a protein stability index of 2.17 ± 0.2.
IFLKRKDFTNKNLIQLI [SRB8] gave a protein stability index of 1.31 ± 0.053.
Work on IFNSGKMIILDKLLKRL [ISW2] yielded a protein stability index of 2.17 ± 0.077.
IFSFHQDSIFQRIIADL [SRB8] gave a protein stability index of 2.49 ± 0.062.
IFTCQIMNLITNEPCGA [RPN4] gave a protein stability index of 2.07 ± 0.087.
In the case of IGEGAKLVRDAFALAKE [RPT5], the protein stability index is reported as 3.51 ± 0.12.
With IGESARIIREMFAYAKE [RPT4] the protein stability index was 2.31 ± 0.065.
For IGFITSGTYHLNCGNGM [POP1], the protein stability index was 2.56 ± 0.1.
With IGLLNKSKSSLDGKFSL [RPN2] the protein stability index was 2.67 ± 0.089.
With IGQLIGEVMKELSEEKY [RPT4] the protein stability index was 3.27 ± 0.063.
Work on IGSTSKRPIESGTSSDP [YIL149C/MLP2] yielded a protein stability index of 3.23 ± 0.087.
In the case of IGTINSIVHINSQERVQ [SIR2], the protein stability index is reported as 2.13 ± 0.037.
In the case of IGTKRFDSEKSGDREVQ [RPT5], the protein stability index is reported as 3.15 ± 0.19.
IGVETGSEPLIQQVVEY [PRP28] showed a protein stability index of 2.99 ± 0.065.
For IHALAAKLLQENDTTLV [FAS1], the protein stability index was 2.53 ± 0.13.
IHFADVAHITTKSPAYP [RGR1] gave a protein stability index of 2.42 ± 0.054.
In the case of IHFREHQSELIIKQTVH [YMR129W/POM152], the protein stability index is reported as 2.46 ± 0.072.
With IHIQSKENYPWELYTDF [POP3] the protein stability index was 2.99 ± 0.095.
In the case of IHNTKLPAYSGEIGDFF [POP1], the protein stability index is reported as 3.07 ± 0.06.
In the case of IHQYLFQEGVVVAKKDF [RPS10A], the protein stability index is reported as 2.29 ± 0.068.
With IIESHLIQLQNIFKAEM [CSN9] the protein stability index was 2.75 ± 0.1.
Sequence IIKKDEVVKRYLKMRQD [PUP3] has a protein stability index of 3.66 ± 0.2.
In the case of IIKQTVHPIPDVAFADG [YMR129W/POM152], the protein stability index is reported as 2.8 ± 0.053.
IILSIDEHHESFELKEE [RRP6] gave a protein stability index of 3.19 ± 0.1.
With IIMHKDVEIGRMPIMLR [RET1] the protein stability index was 3.29 ± 0.26.
IINFGEIEQNTELLDEF [RPN10] showed a protein stability index of 3.25 ± 0.1.
For IIQPFLDNSKMDYHFIF [RGR1], the protein stability index was 2.99 ± 0.13.
With IITQYVFESLEINNLIQ [ARP9] the protein stability index was 3.2 ± 0.098.
Sequence IIYHTTFSWLNAELLDY [YLR018C/POM34] has a protein stability index of 2.72 ± 0.072.
In the case of IIYPRSQTTLVQFGLNE [ARP9], the protein stability index is reported as 3.04 ± 0.19.
Sequence IKIGIRVMKSLSINEKD [YCG1] has a protein stability index of 1.49 ± 0.087.
For IKIKSLEYEISKLKKET [YIL149C/MLP2], the protein stability index was 2.97 ± 0.26.
IKKKRKELFEKTFDYVS [SMC1] showed a protein stability index of 3.16 ± 0.12.
Sequence IKKPKTYKYPSLKGVDP [RPL29] has a protein stability index of 3.63 ± 0.29.
Sequence IKLVKQNDELKFQGVLE [RPC34] has a protein stability index of 3.25 ± 0.13.

Same assay, conditions: pdr5∆
IEKSRLFSEKTIRYLMQ [SNF6] showed a protein stability index of 2.29 ± 0.048.
Sequence IEKWTANLLPARQFGYV [RPS22A] has a protein stability index of 1.92 ± 0.088.
In the case of IERYPLKVTKKHGAKKV [RPL27A], the protein stability index is reported as 3.6 ± 0.14.
In the case of IESIRSCKDSQLKWAQN [YIL149C/MLP2], the protein stability index is reported as 3.01 ± 0.069.
Work on IEVTIGIDQYSFNVKEN [AAR2] yielded a protein stability index of 2.75 ± 0.05.
In the case of IFEISLQRKDYTSIVQC [YML103C/NUP188], the protein stability index is reported as 1.75 ± 0.048.
Sequence IFFNIPLVAHLGLYVGV [YJL039C/NUP192] has a protein stability index of 1.4 ± 0.059.
Sequence IFIATQLEKKIRFVCLS [BRR2] has a protein stability index of 1.86 ± 0.11.
Sequence IFLKRKDFTNKNLIQLI [SRB8] has a protein stability index of 1.43 ± 0.041.
Work on IFNSGKMIILDKLLKRL [ISW2] yielded a protein stability index of 1.93 ± 0.055.
Work on IFSFHQDSIFQRIIADL [SRB8] yielded a protein stability index of 2.06 ± 0.072.
IFTCQIMNLITNEPCGA [RPN4] gave a protein stability index of 2.61 ± 0.18.
IGEGAKLVRDAFALAKE [RPT5] gave a protein stability index of 3.38 ± 0.14.
With IGESARIIREMFAYAKE [RPT4] the protein stability index was 2.29 ± 0.064.
IGFITSGTYHLNCGNGM [POP1] gave a protein stability index of 2.93 ± 0.082.
With IGLLNKSKSSLDGKFSL [RPN2] the protein stability index was 2.85 ± 0.15.
For IGQLIGEVMKELSEEKY [RPT4], the protein stability index was 3.42 ± 0.076.
IGSTSKRPIESGTSSDP [YIL149C/MLP2] showed a protein stability index of 3.22 ± 0.1.
In the case of IGTINSIVHINSQERVQ [SIR2], the protein stability index is reported as 2.16 ± 0.034.
For IGTKRFDSEKSGDREVQ [RPT5], the protein stability index was 3.51 ± 0.2.
IGVETGSEPLIQQVVEY [PRP28] gave a protein stability index of 3.08 ± 0.084.
Sequence IHALAAKLLQENDTTLV [FAS1] has a protein stability index of 2.8 ± 0.14.
IHFADVAHITTKSPAYP [RGR1] gave a protein stability index of 2.61 ± 0.055.
Work on IHFREHQSELIIKQTVH [YMR129W/POM152] yielded a protein stability index of 2.85 ± 0.069.
IHIQSKENYPWELYTDF [POP3] showed a protein stability index of 3.16 ± 0.12.
In the case of IHNTKLPAYSGEIGDFF [POP1], the protein stability index is reported as 3.1 ± 0.062.
Sequence IHQYLFQEGVVVAKKDF [RPS10A] has a protein stability index of 2.08 ± 0.071.
Sequence IIESHLIQLQNIFKAEM [CSN9] has a protein stability index of 3.14 ± 0.11.
IIKDYVLDIVPGSSITE [SRB4] gave a protein stability index of 2.58 ± 0.19.
IIKQTVHPIPDVAFADG [YMR129W/POM152] showed a protein stability index of 2.89 ± 0.062.
In the case of IILSIDEHHESFELKEE [RRP6], the protein stability index is reported as 2.99 ± 0.15.
IIMHKDVEIGRMPIMLR [RET1] gave a protein stability index of 3.18 ± 0.16.
Sequence IINFGEIEQNTELLDEF [RPN10] has a protein stability index of 3.42 ± 0.083.
Work on IIQPFLDNSKMDYHFIF [RGR1] yielded a protein stability index of 2.06 ± 0.082.
Work on IITQYVFESLEINNLIQ [ARP9] yielded a protein stability index of 2.93 ± 0.081.
For IIYHTTFSWLNAELLDY [YLR018C/POM34], the protein stability index was 2.19 ± 0.068.
IIYPRSQTTLVQFGLNE [ARP9] gave a protein stability index of 1.33 ± 0.082.
With IKGPEFKFSGTVSSDVF [YLR335W/NUP2] the protein stability index was 3.17 ± 0.18.
IKIGIRVMKSLSINEKD [YCG1] showed a protein stability index of 1.61 ± 0.061.
IKIKSLEYEISKLKKET [YIL149C/MLP2] gave a protein stability index of 2.97 ± 0.096.

Source: the supplement of paper PMC9732359
